Laboratory results from the nanobody polyreactivity screen of Harvey et al. (2022).

Assay: yeast display, Sf9 membrane polyspecificity reagent, FACS + sequencing; frameworks hold sequencing errors
Outline: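 Synthetic nanobody libraries on Saccharomyces cerevisiae BJ5465 were galactose-induced for 36–48 hours, stained 1 hour at 4 °C with 10% biotinylated, detergent-solubilized Sf9 membrane reagent and enriched on streptavidin microbeads. FACS then separated cells into low and high (top ~1%) gates by anti-HA (expression) and streptavidin (reagent binding) fluorescence. Genes were colony-PCR amplified, MiSeq 2 × 250 sequenced and CDR-length filtered. A clone's polyreactivity label is that of its gate of origin.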

| Sequence | polyreactivity (PSR sort gate) |
| --- | --- |
| QVQLLESGGGLVQAGGSLRLSCAASGRTFWAYAMGWYRQAPGKERELVAAIDGGDGSTYYADSVKGRFTISRDYAKNTVYLQMNSLKPEDTAVYYCAAETPSGYYPQQYDYYLGQGTQVTVSS | high polyreactivity |
| QVQLLESGGGLVQAGGSLRLSCAASGSIFGGNARGWSRQAPGKERELVAAITYSGGSTYYADSVKGRFTISRDNAKNTVYLQMNSLKPEDTAVYYCNADGVVTWYDYWGQGTQVTVSS | low polyreactivity |
| QVQLLESGGGLVQAGGSLRLSCAASGSIFGYYAMGWYRQAPGKERELVAAISVNGGRTYYADSVKWRFTISRDIAKNTVYLQMNMLKPEDTAVSYCAAELVDFITFRGDFYYWGQGTEVTVSS | high polyreactivity |
| QVQLLESGGGLVQAGGSLRLSCAASGSIFLTYAMGWYRQAPGKERELVAAISSSGGSTYYADSVKGRFTISRDNSKNTVYLQMNSLKPEVTAVYYCNAAYHFRRTLGRDHWGQGTEVTVSS | low polyreactivity |
| QVQLLESGGGLVQAGGSLRLSCAASGSIFRANAMGWYRQAPGKERELVAAITNGGRTNYADSVKGRFTISRDNAKNTVYLQMNSLKPEDTAVYYCAKDIYQHAKRRYDYWGQGTQVTVSS | low polyreactivity |
| QVQLLESGGGLVQAGGSLRLSCAASGSIFRGYAMGWYRQAPGKERELVAGIRGSDGSTYYADSVKGRFTISRDNAKNTVYLQMNSLKPEDTAVYYCAADRRYLDRDKHRYGYWGQGTQVTVSS | low polyreactivity |
| QVQLLESGGGLVQAGGSLRLSCAASGSIFVINVMGWYRQAPRKDRELVATITGGRSTKYADSVNGRFTISRDNAKNTVYLQMNSLKPEDTAVYYCNIQSKSRGVHDPSGYDYWGQGTQVTVSS | low polyreactivity |
| QVQLLESGGGLVQAGGSLRLSCAASGSIFWYNAMGWYRQAPGKERELVATISSRGDGTYYADSVKGRFTISRDNAKNTVYLQMNSLKPEDTAVYYCNKYRQQGWEFDYWGQGTQVTVSS | high polyreactivity |
| QVQLLESGGGLVQAGGSLRLSCAASGSTFKKNAMGWYRQAPGKETELVAAISGIGTRTSYADSLKGRFTISRDNAKNTVYLQMNRLKPEDTAVYYCAARYYGFPSTLKYDYWGQGTQVTVSS | high polyreactivity |
| QVQLLESGGGLVQAGGSLRLSCAASGSTFYYYAMGWYRQAPGKERELVAAITSGGRTYYADSQKGRFTNSRDNAKNTVYLQMNSLKPEDTAVYYSNKRWTIWGYDYWAQGTQVTVSS | high polyreactivity |
| QVQLLESGGGLVQAGGSLRLSCAASGYIFGWYTMGWYRQAPGKERELVAAISYSGGDTYYADSVKGRFTNTRDNAKNTVYLQMNSLKPEDTAVYYCAAVDPASPLGEYWGQGTQVTVSS | low polyreactivity |
| QVQLLESGGGLVQAGGSLRLSCAASGYIFLRNAMGWYRQAPGKERELVAAIRRTGGSTYYADSVKGRFTISRDNAKNTVYLQMNSLKPEDTAVYYCAKRSYTGYEYWGQGTQVTVSS | low polyreactivity |
| QVQLLESGGGLVQAGGSLRLSCAATRRIFEYNGMGWYRQAPGKDSELVAAIEWNGSPTYADSVKGRFTIARDNAKNTVYLLMNSLKPEDTSVYYCAKAYPGKAPKYDYWGQGTQVTVSS | low polyreactivity |
| QVQLLESGGGLVQAGGSLRLSCADSGSIFPKNAIGWYRQAPGKERELVAGITSRTGRTYYADSVKGRFTISRDNSKNTVYLQMNRLKPEDTAVYYCAARIGGGPVKYDYWGQGTQVTVSS | high polyreactivity |
| QVQLLESGGGLVQAGGSLRLSCAHSGLIIWANAMGWYRQAPGKESEMVAAISGSGGRTYYADSVKGRFSISRDNAKNTVYLEMNSLIPEDTAVYFCAAKVSAWKKKSEMNYWGQGTQVTVSS | high polyreactivity |
| QVQLLESGGGLVQAGGSLRLSCDASGITFGPNAMGWYRQAPGKERELVATISSSGGSTYYSDSVKGRFTISRDNAKNTVLLQMKSLKPEDTAVYYCNSGFDPYLGAYDYWGQGTQVTVSS | low polyreactivity |
| QVQLLESGGGLVQAGGSLRLTCAASGSTFDYYAMGWYRQAPGKERELVATISYNDDTTYYADSVKGRFTISRDNAKNTVYLQMNSLKPEDTAVYYCNAEVYGGRYYVDMYYWGQGTQVTVSS | low polyreactivity |
| QVQLLESGGGLVQAGGSLSLSCAASGSTFKHYAMGWYRQAPGKERELVAAISSRGGSTHYADSVKGRFTISRDNAKNTVYLQMNSLKREDTAVYYCARDTDPQSSRSSDYDYWGQGTQVSVSS | low polyreactivity |
| QVQLLESGGGLVQAGGSRRLSCAASGRTFIFNAMGWYRQAPGKETELVAAISSGGGTNYADSEKGRFTISRDNAKNTVYLQMNSLKPEDTAVYYCARGSYKYRHSYDYWGQGTEVTVSS | low polyreactivity |
| QVQLLESGGGLVQAGGTLRLSCAASGSIIGRNAMGWYRQAPGKERELVAAITWRTGSTFYADSVKGRFTISRDNAKNTVYLQMNSLKPEDTAVYYCNAAGPAYSYYHWLWGDYNSWRQGTQVTVSS | low polyreactivity |
| QVQLLESGGGLVQAGGTLRLSCAASGYTFTNNAMGWYRQAPGKERELVAGITRGGSTNYADSVKGRFTISRDNAKNTVSLQMNSLKPEDTAVYYWAADLRPNSQNGLLEDEMDYWGQGTQVTVSS | low polyreactivity |
| QVQLLESGGGLVQARGSLRISCAASGLTFFFYAMGWYRQAPGKERELVAAISFSGGSTYADSVKGRFTISRDNAKNTVYLQMNSLKPEDTAVYYCNAPPQFATFTYANWRQGTQVTVSS | low polyreactivity |
| QVQLLESGGGLVQPGGSLRLSCAASGSIFGLNAMGLYRQEPGKETELVAAISGGSTNYADSVKGRFTISRDNAKNTVYFQMISLKPEDTAVYYCAAPRTKYLSNYGFWGEGTQVTVSS | high polyreactivity |
| QVQLLESGGGLVQSGGSLRLSCADSGNIFVTYAMGWYRQAPGKESELVAGITSSDDSTYYADSVKVRFTISLDNAKNTVYLQMNSLKPEDTAVYYCATYYWEVGIGQFYYWGQGTQVTVSS | low polyreactivity |
| QVQLLESGGGVVQAGGSLRLSCASSGFTFRINAMGWYRPAPGKERELVAANSGRGGSTYYADSVKGRFTISRDYAKNTVYLQMNSLKPEDTAVYYCAAKGSSSLSYYYWGQGTQVTVSS | high polyreactivity |
| QVQLLESGGVLVQAGGSLLLSCAASGSIFSPYAMGRYRQAPGKERELVATISTIDGSTTYADSVKGRFTISRDYAKNTVYLQMKSLKPEDTAVYYCNAEYAYFKLWANPYDMDYWGQGTQVTVSS | low polyreactivity |
| QVQLLESGRGLVQAGGSLRLSCAPSGSIFSGMVMGWYIQAPGKERELVAAISSRGGNTYYADSVKGRFTISRDNAKNTVYLQMNSLITEDTAVYYCNKVKFNWYEWGQGTQVSVSS | high polyreactivity |
| QVQLLESGVGLDQAGGSLRLSCAASGSTFNRNAMGWYRQAPGKERELVAAITYSGGSTYYADSVKGRFTISRDNAKNTVYLQMNSLNPEDTAVYYCNAPYAGMGYWGQGTQVTVSS | low polyreactivity |
| QVQLLETGRGLVQAGGSLRISCAASGYTFGVYVMGWYRQAPGQERELVAAISGSTYYADSVNGRFKISRDNAKNTVYLQMNSLKPEDTAVYYCAAESFFFSPRTREIFDYWGQGTQVTVSS | low polyreactivity |
| QVQLQDSGGGLVQAGGSLGLSCAASGYIFGSGSMGWFRQAPGKERELVATINNGSSTYYADSVKGRFTISRDNSKNTVSLQMNSLKPEDTAVYYCAVYLYRLTFFYYWGQGNQVTVSS | high polyreactivity |
